Holding throughout (type): biochemical
A short description of data set [1]: NADH oxidation rate of purified ScHIDH-R143H with 2-oxoheptanedioic acid as substrate. Here is the method: (§1) NADH, 2-oxoadipate, 2-oxoglutarate, 2-heptandioate, and MgCl2 were from Sigma. Standard reaction mixes contained 15 mM 2-oxoadipate, 100 μM NADH, and a reaction buffer with final concentrations of 20 mM MgCl2 and 500 mM HEPES, pH 7.3. NADH oxidation was monitored by the decrease in fluorescence with excitation of 340 nm and emission of 450 nm on a PolarSTAR Optima plate reader (BMG Labtech). Fluorescence monitored reactions were carried out in 10-μL volumes in a 384-well black microplate (Greiner 788076) covered with clear optical film. The levels of fluorescence were converted to NADH concentrations based on standards of NADH in reaction buffer containing BSA. Reactions with high amounts of NADH were monitored by the UV absorbance of NADH at 340 nm in 40-μL reaction volumes in clear 96-well plates.
(§2) Reaction rates are NADH oxidation per unit time per unit of purified enzyme or crude lysate and 1 Unit (U) is 1 μmolNADH min^−1 mgenzyme^−1. Rates are initial rates calculated by least squares linear regression on the first 10 minutes of the reaction. For KM determination, concentrations of substrate/cofactors at least 5×-higher than the KM were used, while the species of interest was varied in concentration; substrate/cofactor concentrations: 500 μM NADH; 15 mM 2-oxoadipate; 20 mM MgCl2. […]

The nature of data set [2]: Enantiospecific LC-MS/MS quantification of (R)- and (S)-2-hydroxyadipate product. On the procedure: Quantitative, enantiospecific LC-MS/MS was performed based on the procedure described for 2-hydroxyglutarate. Jin et al., PLoS one 6, e16812: 1-8 (2011); Struys, et al., Clin. Chem. 50: 1391-1395 (2004). To 20 μL of reaction mix, 2 μL of 130 μg/mL of a racemic mixture of [3,3,4,4-^2H4]-2-hydroxyglutarate (internal standard) in water was added and the mixture dried by vacuum centrifuge (50° C., 15 min). The dry residue was treated with 50 mg/mL freshly prepared diacetyl-L-tartaric anhydride (Sigma) in dichloromethane/glacial acetic acid (4:1 by volume) and heated (75° C., 30 min). After drying (50° C., 15 min) the residue was dissolved in 100 μL of LC mobile phase A (see below) for analysis. An Agilent 1200 series HPLC (Santa Clara, Calif.) was used for liquid chromatography (LC) and a Sciex/Applied Biosystems API 3200 QTrap (Carlsbad, Calif.) was used for triple quadrupole mass spectrometry (MS/MS). Mobile phase A: water, 3% acetonitrile, 280 μL ammonium hydroxide (^˜25%), pH adjusted to 3.6 with formic acid (^˜98%). Mobile phase B: methanol. Analytical column: Kinetex C-18, 150×4.6 mm, 2.6 μm, and SafeGuard C-18 4×3 mm guard-column from Phenomenex (Torrance, Calif.). Column temperature: 45° C. Elution gradient at 1 mL/min flow rate: 0-1 min 0% B, 1-2 min 0-100% B, 2-3.5 min 100% B, 3.5-4 min 100-0% B, 4-10 min 0% B. Injection volume: 10 μL. Q1/Q3 (m/z) transitions were monitored: 377/161, 2-hydroxyadipate (2HA) and 367/151, [3,3,4,4-^2H4]-2-hydroxyglutarate (2HG-d4). To calibrate, 0, 0.16, 0.54, 1.8, 6, and 20 μg/mL 2-hydroxyadipate (Sigma), synthesized as described above, was analyzed in reaction buffer. (R)- and (S)-enantiomers were discriminated based on time of elution from the HPLC column, using the relative elution time for (R)-2-hydroxyglutarate compared to the racemic mixture of 2-hydroxyglutarate described previously to identify the (R)-2-hydroxyadipate enantiomer. Jin et al., PLoS one 6, e16812: 1-8 (2011). Standards were analyzed alongside experimental samples. Accuracy acceptance criteria were 85% for all but the lowest level (0.16 μg/mL, 80%).

Data set [3] is described as follows: Magnesium dependence of ScHIDH-R143H. On the procedure: (§3) Assays were performed with 40 ng/μL enzyme, 15 mM 2-oxoadipate, 100 μM NADH, 20 mM MgCl2 and 100 mM HEPES, pH 7.3 in 10 or 20 μL volumes in 384-well black microplates. NADH concentration was monitored by the decrease in fluorescence (excitation wavelength: 340 nm; emission wavelength: 450 nm) on a fluorescent plate reader. The fluorescence intensities were converted to NADH concentrations based on NADH standards. Reactions with high amounts of NADH (>300 μM) were monitored by the UV absorbance of NADH at 340 nm in a 40 μL reaction volume in a clear 96-well plate on the same plate reader. Reactions with ScHIDH were carried out at 25° C. and reactions with TtHIDH were carried out at 45° C. Reported rates are initial rates from the first 10 minutes of reaction. For KM determination, concentrations of substrate at least 5×-higher than the KM were used (for NADH, 500 μM; for 2-oxoadipate, 15 mM) while the substrate of interest was varied in concentration. KM and Vmax were estimated by fitting data to equation (1) using nonlinear regression, where x is substrate concentration and y is the rate. y=Vmax·x/KM+x (1) Rate data for ScHIDH-R143C, -R143H, and -R143K are summarized in Table 3.
ScHIDH-R143H activity was assayed at various MgCl2 concentrations under the standard reaction conditions described in Example 11. The rate is relative to the rate at 20 mM MgCl2. […]

Data set [4] can be described thus: NADH oxidation rate of purified HIDH mutants with 2-oxoglutarate as substrate. To be noted: ScHIDH-R143H. Here is the method:
as §1, §2

Data set [5] is described as follows: NADH oxidation rate of purified HIDH enzymes with 2-oxoadipate (fluorescence / UV 340 nm). Here is the method:
as §1
(§4) Reaction rates are NADH oxidation per unit time per unit of purified enzyme or crude lysate and 1 Unit (U) is 1 μmolNADH min^−1 mgenzyme^−1. Rates are initial rates calculated by least squares linear regression on the first 10 minutes of the reaction. For KM determination, concentrations of substrate/cofactors at least 5×-higher than the KM were used, while the species of interest was varied in concentration; substrate/cofactor concentrations: 500 μM NADH; 15 mM 2-oxoadipate; 20 mM MgCl2. Reported α-hydroxyadipate (2-hydroxy adpic acid) Vmax values were obtained from 2-oxoadipate KM determination experiments. Michaelis-Menten KM and Vmax parameters were estimated by fitting data to a curve using nonlinear regression in GraphPad Prism 5.0 (GraphPad Software, La Jolla, Calif.).
as §3

The nature of data set [6]: Kinetic characterization of ScHIDH mutants: KM NADH. On the procedure: as §4, §3
A short description of data set [7]: Kinetic characterization of ScHIDH mutants: KM 2-oxoadipate and Vmax. On the procedure:
as §4, §3

The nature of data set [8]: NADH oxidation with 2-oxoadipate plus CO2 added as NaHCO3 (reductive carboxylation). The settings on record: up to 60 mM NaHCO3. On the procedure: as §1, §4
Data set [9] can be described thus: pH dependence of ScHIDH-R143H. Here is the method: as §3
ScHIDH-R143H activity was assayed in HEPES buffer at various pH under the standard reaction conditions described in Example 11, above. The rate is relative to the rate at pH 7.4. […]

Setting [10] is: ScHIDH, initially 2 mM NADH and 2 mM 2-oxoadipate, 10 h.

By Km is commonly meant the substrate concentration at which the rate is half of its maximum. What is called Vmax is the rate approached at saturating substrate.

Where only a bound is given, the exact number is not on record here.

B1: ScHIDH-R143H: Saccharomyces cerevisiae homoisocitrate dehydrogenase R143H mutant, an (R)-2-hydroxyadipate dehydrogenase (protein)
chain: MFRSVATRLSACRGLASNAARKSLTIGLIPGDGIGKEVIPAGKQVLENLNSKHGLSFNFIDLYAGFQTFQETGKALPDETVKVLKEQCQGALFGAVQSPTTKVEGYSSPIVALRREMGLFANVRPVKSVEGEKGKPIDMVIVHENTEDLYIKIEKTYIDKATGTRVADATKRISEIATRRIATIALDIALKRLQTRGQATLTVTHKSNVLSQSDGLFREICKEVYESNKDKYGQIKYNEQIVDSMVYRLFREPQCFDVIVAPNLYGDILSDGAAALVGSLGVVPSANVGPEIVIGEPCHGSAPDIAGKGIANPIATIRSTALMLEFLGHNEAAQDIYKAVDANLREGSIKTPDLGGKASTQQVVDDVLSRL
modifications: ScHIDH R143H polypeptide
notes: Saccharomyces cerevisiae homoisocitrate dehydrogenase R143H mutant, an (R)-2-hydroxyadipate dehydrogenase
Take B1: in data set [1], the “NADH oxidation rate in the presence of 15 mM 2-oxoheptanedioic acid” value was < 0.001 U. Also, the “concentration of (R)-2-hydroxyadipate after 10 h” value in [2] (setting [10]) was 0.97 mM. Further, the Enantiomeric Excess in data set [2] (Table 3, (R)-2-hydroxyadipate product) is > 99.1%. Besides, the Km in data set [3] (Table 3, read-out: KM MgCl2) stood at 1200 µM; in data set [3] (various MgCl2 concentrations, standard conditions, read-out: KM for MgCl2), 1100 µM; in data set [6] (Table 3, 15 mM 2-oxoadipate, 20 mM MgCl2, pH 7.3, 25° C.), 88 µM; in data set [6] (purified enzyme) it was 85 ± 21 µM; in [7] (Table 3, 40 ng/μL enzyme, 500 μM NADH, 20 mM MgCl2, pH 7.3, 25° C.), 2000 µM; in [7] (purified enzyme) it was 1400 ± 250 µM. Also, in data set [4], the “NADH oxidation rate in the presence of 15 mM 2-oxoglutarate” value is reported as < 0.001 U. Also, in data set [5] (ScHIDH, 15 mM 2-oxoadipate, 100 μM NADH, 0.4 μg purified enzyme), the “rate of NADH oxidation in the presence of 2-oxoadipate” value worked out at 0.0096±0.000014 U. Moreover, the “decrease of NADH concentration after 10 h compared to a buffer control” value in data set [5] (setting [10]) was found to be 0.62 mM. In addition, the “NADH oxidation rate, reaction containing no substrate” value in data set [5] (ScHIDH-R143H, no substrate) was < 0.001 U. Further, in [7] (Table 3, from 2-oxoadipate KM experiments), the maximum rate (Vmax) is 0.036 µmol/min/mg. For the same molecule, the “maximal velocity (Vmax)” value in data set [7] (purified enzyme) stood at 0.020±0.0027 U. Moreover, in data set [8], the “stimulation by addition of NaHCO3” value is reported as “not stimulated”. The pH optimum in [9] (HEPES buffer at various pH, standard conditions) is recorded as 7.4; in data set [9] (Table 3, HEPES buffer) it was 7.4.
